Assay results as given in patent US7076372 (Takeda / Millennium, dated 2006).

Biological target: the molecule itself
Test: X-ray crystal structure, two MvaS molecules in the asymmetric unit

B1: MvaS from E. faecalis (HMG-CoA Synthase), full-length with non-cleavable carboxy-terminal six histidine tag, seleno-methionine labeled (enzyme)
chain: MTIGIDKISFFVPPYYIDMTALAEARNVDPGKFHIGIGQDQMAVNPISQDIVTFAANAAEAILTKEDKEAIDMVIVGTESSIDESKAAAVVLHRLMGIQPFARSFEIKEACYGATAGLQLAKNHVALHPDKKVLVVAADIAKYGLNSGGEPTQGAGAVAMLVASEPRILALKEDNVMLTQDIYDFWRPTGHPYPMVDGPLSNETYIQSFAQVWDEHKKRTGLDFADYDALAFHIPYTKMGKKALLAKISDQTEAEQERILARYEESIVYSRRVGNLYTGSLYLGLISLLENATTLTAGNQIGLFSYGSGAVAEFFTGELVAGYQNHLQKETHLALLDNRTELSIAEYEAMFAETLDTDIDQTLEDELKYSISAINNTVRSYRNKGHHHHHH
modifications: selenomethionine (MSE) in place of methionine, 100% incorporation by mass spectrometry
notes: Crystallised as a complex with the small molecule HMG-CoA; There are two MvaS molecules in the asymmetric unit, described as a dimer; Coordinates lack residues 1 and 384-391 (molecule A) and residues 1 and 388-391 (molecule B); also called MvaS Ef
binding result: binds
